Assay results as given in article doi:10.1101/2023.06.07.544024 (bioRxiv, 2023).

Target: FtsH (E. coli, UniProt P0AAI3 1-644)
Assay: cross-linking

FtsH, sequence (P0AAI3 whole entry): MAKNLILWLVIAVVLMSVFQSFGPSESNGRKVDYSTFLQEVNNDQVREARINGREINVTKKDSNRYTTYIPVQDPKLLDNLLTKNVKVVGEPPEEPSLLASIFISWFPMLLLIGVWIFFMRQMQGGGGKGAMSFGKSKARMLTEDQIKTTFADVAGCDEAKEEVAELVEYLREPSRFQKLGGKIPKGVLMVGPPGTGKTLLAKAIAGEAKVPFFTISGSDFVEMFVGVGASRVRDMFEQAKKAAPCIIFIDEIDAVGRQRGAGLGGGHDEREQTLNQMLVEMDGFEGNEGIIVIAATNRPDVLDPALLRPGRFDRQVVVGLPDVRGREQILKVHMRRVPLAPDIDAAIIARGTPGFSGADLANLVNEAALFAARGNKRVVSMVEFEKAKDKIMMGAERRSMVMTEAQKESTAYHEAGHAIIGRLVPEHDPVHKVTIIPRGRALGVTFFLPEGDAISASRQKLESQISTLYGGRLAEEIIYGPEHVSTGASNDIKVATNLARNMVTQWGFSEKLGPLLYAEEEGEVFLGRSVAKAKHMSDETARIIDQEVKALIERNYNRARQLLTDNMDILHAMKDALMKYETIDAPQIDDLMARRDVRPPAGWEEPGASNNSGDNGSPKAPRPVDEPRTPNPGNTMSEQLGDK

B1: HflC (natural protein, E. coli)
chain: MRKSVIAIIIIVLVVLYMSVFVVKEGERGITLRFGKVLRDDDNKPLVYEPGLHFKIPFIETVKMLDARIQTMDNQADRFVTKEKKDLIVDSYIKWRISDFSRYYLATGGGDISQAEVLLKRKFSDRLRSEIGRLDVKDIVTDSRGRLTLEVRDALNSGSAGTEDEVTTPAADNAIAEAAERVTAETKGKVPVINPNSMAALGIEVVDVRIKQINLPTEVSEAIYNRMRAEREAVARRHRSQGQEEAEKLRATADYEVTRTLAEAERQGRIMRGEGDAEAAKLFADAFSKDPDFYAFIRSLRAYENSFSGNQDVMVMSPDSDFFRYMKTPTSATR
B1: binds.

B2: HflK (natural protein, E. coli)
chain: MAWNQPGNNGQDRDPWGSSKPGGNSEGNGNKGGRDQGPPDLDDIFRKLSKKLGGLGGGKGTGSGGGSSSQGPRPQLGGRVVTIAAAAIVIIWAASGFYTIKEAERGVVTRFGKFSHLVEPGLNWKPTFIDEVKPVNVEAVRELAASGVMLTSDENVVRVEMNVQYRVTNPEKYLYSVTSPDDSLRQATDSALRGVIGKYTMDRILTEGRTVIRSDTQRELEETIRPYDMGITLLDVNFQAARPPEEVKAAFDDAIAARENEQQYIREAEAYTNEVQPRANGQAQRILEEARAYKAQTILEAQGEVARFAKLLPEYKAAPEITRERLYIETMEKVLGNTRKVLVNDKGGNLMVLPLDQMLKGGNAPAAKSDNGASNLLRLPPASSSTTSGASNTSSTSQGDIMDQRRANAQRNDYQRQGE
B2: binds.
